Results taken from publication PMC9482650, “Quantitative fragmentomics allow affinity mapping of interactomes” (Nature Communications, 2022).

Assays:
Assay in all cases: holdup assay
Set-up in all cases: key: below the threshold = too weak to quantify, mostly under pKd 3.1 to 4
Details in all cases: plain residues with an end cap or a label only (N-terminal biotin on a linker: ttds)
PDZD7_2, Q9H5P4 = target: T1, PDZD7_2, Q9H5P4
T1 sequence (Q9H5P4 205-303, limits assumed, looked up): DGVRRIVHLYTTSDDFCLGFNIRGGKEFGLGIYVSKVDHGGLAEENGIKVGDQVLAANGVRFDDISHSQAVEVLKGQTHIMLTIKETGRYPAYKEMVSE

SHROOM4, Q9ULL8 = target: T2, SHROOM4, Q9ULL8
T2 sequence (Q9ULL8 5-102, limits assumed, looked up): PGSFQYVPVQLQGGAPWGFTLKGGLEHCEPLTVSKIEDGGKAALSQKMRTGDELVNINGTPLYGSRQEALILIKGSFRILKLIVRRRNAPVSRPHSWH

Q9UMS6 = target: Q9UMS6
MAGI1_4, Q96QZ7 = target: MAGI1_4, Q96QZ7
Chain of MAGI1_4, Q96QZ7 (Q96QZ7 other isoform, or with tags, fused parts or gaps): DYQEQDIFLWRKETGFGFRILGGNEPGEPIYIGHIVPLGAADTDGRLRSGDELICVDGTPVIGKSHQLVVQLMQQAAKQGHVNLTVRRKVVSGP

PTPN13_5, Q12923 = target: T3, PTPN13_5, Q12923
T3 sequence (Q12923 1877-1975, limits assumed, looked up): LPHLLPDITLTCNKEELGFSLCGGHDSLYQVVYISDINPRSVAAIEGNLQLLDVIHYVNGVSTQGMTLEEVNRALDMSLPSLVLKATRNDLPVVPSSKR

NHERF2_1, Q15599 = target: NHERF2_1, Q15599
Chain of NHERF2_1, Q15599 (Q15599 9-91): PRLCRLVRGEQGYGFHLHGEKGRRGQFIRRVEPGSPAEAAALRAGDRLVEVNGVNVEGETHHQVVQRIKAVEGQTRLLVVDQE

DLG2_1, Q15700 = target: DLG2_1, Q15700
Q9ULJ8 = target: Q9ULJ8
NHERF4_3, Q86UT5 = target: NHERF4_3, Q86UT5
Chain of NHERF4_3, Q86UT5 (Q86UT5 325-412): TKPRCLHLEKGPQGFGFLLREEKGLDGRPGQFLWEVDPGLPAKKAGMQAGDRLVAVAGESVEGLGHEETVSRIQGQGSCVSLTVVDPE

Q13009 = target: Q13009
PDZD2_1, O15018 = target: T4, PDZD2_1, O15018
T4 sequence (O15018 80-192, limits assumed, looked up): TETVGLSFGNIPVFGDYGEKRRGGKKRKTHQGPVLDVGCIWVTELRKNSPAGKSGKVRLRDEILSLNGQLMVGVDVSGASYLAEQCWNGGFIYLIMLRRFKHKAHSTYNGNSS

IL16_2, Q14005 = target: IL16_2, Q14005
Chain of IL16_2, Q14005 (Q14005 350-450): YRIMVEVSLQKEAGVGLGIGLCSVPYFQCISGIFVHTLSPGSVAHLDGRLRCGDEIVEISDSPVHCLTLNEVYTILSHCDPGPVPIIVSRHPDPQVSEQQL

Q92614 = target: Q92614
Q8TDM6 = target: Q8TDM6
MPDZ_11, O75970 = target: T5, MPDZ_11, O75970
T5 sequence (O75970 1720-1817, limits assumed, looked up): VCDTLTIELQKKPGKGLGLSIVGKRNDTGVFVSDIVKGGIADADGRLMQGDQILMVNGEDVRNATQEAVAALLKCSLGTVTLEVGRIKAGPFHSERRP

PDZD2_4, O15018 = target: T6, PDZD2_4, O15018
T6 sequence (O15018 723-823, limits assumed, looked up): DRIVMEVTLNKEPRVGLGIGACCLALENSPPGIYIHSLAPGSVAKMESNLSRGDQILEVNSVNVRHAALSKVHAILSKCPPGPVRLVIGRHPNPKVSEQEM

RGS12, O14924 = target: T7, RGS12, O14924
T7 sequence (O14924 17-108, limits assumed, looked up): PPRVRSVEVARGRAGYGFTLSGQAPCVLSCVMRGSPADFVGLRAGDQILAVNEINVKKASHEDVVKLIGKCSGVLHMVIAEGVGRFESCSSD

MAGI3_3, Q5TCQ9 = target: MAGI3_3, Q5TCQ9
Chain of MAGI3_3, Q5TCQ9 (Q5TCQ9 572-655): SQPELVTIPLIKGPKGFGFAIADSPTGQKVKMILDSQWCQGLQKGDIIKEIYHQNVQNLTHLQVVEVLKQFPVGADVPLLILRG

LNX2_4, Q8N448 = target: T8, LNX2_4, Q8N448
T8 sequence (Q8N448 595-690, limits assumed, looked up): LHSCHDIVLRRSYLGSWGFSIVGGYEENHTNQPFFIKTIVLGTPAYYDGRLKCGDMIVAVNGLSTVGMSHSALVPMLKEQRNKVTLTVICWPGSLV

NHERF1_2, O14745 = target: T9, NHERF1_2, O14745
T9 sequence (O14745 149-244, limits assumed, looked up): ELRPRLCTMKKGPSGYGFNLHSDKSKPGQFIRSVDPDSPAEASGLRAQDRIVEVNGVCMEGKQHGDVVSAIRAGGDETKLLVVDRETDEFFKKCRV

MAGIX, Q9H6Y5 = target: MAGIX, Q9H6Y5
Chain of MAGIX, Q9H6Y5 (Q9H6Y5 118-211): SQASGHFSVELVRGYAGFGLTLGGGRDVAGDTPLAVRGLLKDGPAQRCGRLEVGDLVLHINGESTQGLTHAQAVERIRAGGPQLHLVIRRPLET

USH1C_1, Q9Y6N9 = target: T10, USH1C_1, Q9Y6N9
T10 sequence (Q9Y6N9 82-179, limits assumed, looked up): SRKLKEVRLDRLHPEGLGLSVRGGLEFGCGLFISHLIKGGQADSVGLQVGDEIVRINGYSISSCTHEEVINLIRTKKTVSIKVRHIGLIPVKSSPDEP

RIMS1, Q86UR5 = target: RIMS1, Q86UR5
Chain of RIMS1, Q86UR5 (Q86UR5 584-692): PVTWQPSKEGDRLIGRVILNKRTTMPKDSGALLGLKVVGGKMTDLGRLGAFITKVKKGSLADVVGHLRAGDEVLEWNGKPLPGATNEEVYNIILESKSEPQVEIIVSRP

PTPN4, P29074 = target: T11, PTPN4, P29074
T11 sequence (P29074 512-599, limits assumed, looked up): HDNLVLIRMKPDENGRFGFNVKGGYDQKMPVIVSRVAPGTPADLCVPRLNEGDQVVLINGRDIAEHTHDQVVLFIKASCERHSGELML

AHNAK2, Q8IVF2 = target: AHNAK2, Q8IVF2
Chain of AHNAK2, Q8IVF2 (Q8IVF2 108-193): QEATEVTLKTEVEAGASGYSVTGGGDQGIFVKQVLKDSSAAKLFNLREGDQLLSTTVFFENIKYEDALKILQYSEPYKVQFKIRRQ

INTU, Q9ULD6 = target: T12, INTU, Q9ULD6
T12 sequence (Q9ULD6 180-273, limits assumed, looked up): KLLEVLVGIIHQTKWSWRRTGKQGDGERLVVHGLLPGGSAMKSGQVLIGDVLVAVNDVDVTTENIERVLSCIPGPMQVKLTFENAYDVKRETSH

Measured: pKd

PPRQRSETQV [HPV82-E6, Q9IR59]
4.2: MAGI1_4, Q96QZ7
4.32: DLG2_1, Q15700
4.53: PDZD2_4, O15018
not listed: INTU, Q9ULD6
below the threshold: all other assays above

SSIDLWETAL [SLC15A5, A6NIM6]
5.03: LNX2_4, Q8N448
4.64: USH1C_1, Q9Y6N9
4.86: PTPN13_5, Q12923
4.84: PTPN4, P29074
4.68: NHERF2_1, Q15599
below the threshold: all other assays above

SGGKRKETLV [NET1, Q7Z628]
3.72: MPDZ_11, O75970
3.51: PTPN4, P29074
4.87: DLG2_1, Q15700
not listed: Q9UMS6 | MAGI1_4, Q96QZ7 | Q9ULJ8 | Q13009 | Q92614 | Q8TDM6 | LNX2_4, Q8N448 | AHNAK2, Q8IVF2
below the threshold: all other assays above

SRSRRRETAL [HPV33-E6, P06427]
4.5: RGS12, O14924
4.42: PDZD7_2, Q9H5P4
5.02: PTPN4, P29074
5.13: DLG2_1, Q15700
4.54: INTU, Q9ULD6
not listed: Q9UMS6 | Q9ULJ8 | Q13009 | Q92614 | Q8TDM6
below the threshold: all other assays above

SHSSKGETAV [FZD7, O75084]
4.38: DLG2_1, Q15700
4.41: AHNAK2, Q8IVF2
4.54: MAGI3_3, Q5TCQ9
below the threshold: all other assays above

KLVIKTETTV [RASSF6, Q6ZTQ3]
4.33: PTPN4, P29074
4.38: IL16_2, Q14005
4.95: DLG2_1, Q15700
below the threshold: all other assays above
